Test results: PMC11103110

Assays:
[1] = molecular target: Lotus japonicus phytoglobin LjGlb3-1, recombinant (Lotus japonicus) (UniProt P0DO64); assay: SDS-PAGE under non-reducing conditions with Coomassie staining and immunoblot; recombinant protein (20 μM in the methods, 10 μM in the legend) untreated, with 500 μM DTT or with 200–500 μM H2O2, 1 h, 50 mM KPi pH 7.4; 15% SDS-PAGE; DTT made the dimer almost totally disappear, H2O2 caused partial dimerization
[2] = molecular target: Lotus japonicus phytoglobin LjGlb3-1, recombinant (Lotus japonicus) (UniProt P0DO64); assay: SDS-PAGE with immunoblot (anti-NO2-Tyr and protein-specific antibodies); recombinant protein (20 μM in the methods, 5–10 μM in the legend) incubated with 500 μM SIN-1 (peroxynitrite generator) for 2 h at 30 °C in 50 mM KPi pH 7.4; 15% SDS-PAGE

stoichiometry N [1]: 2
stoichiometry N [2]: 2
Substance: Lotus japonicus phytoglobin LjGlb3-1, recombinant (from UniProt P0DO64 1-168) (natural protein)
